Data reported in patent publication US12559559B2, “Targeting Galectin-9 as a therapeutic strategy for T-cell exhaustion in T-cell acute lymphoblastic leukemia” (DANA-FARBER CANCER INSTITUTE, INC., priority 2019, dated 2026).

Target: T1, Galectin-9 (LGALS9) (Homo sapiens, UniProt O00182)
T1 construct: cultured from normal donors with and without T-ALL supernatant (containing LGALS9) for three days; endogenous in cells; host or cells: DND-41 T-ALL cell line (culture supernatant)
Test: T-cell exhaustion functional assay / HAVCR2-LGALS9 pathway blocking in activated CD8+ T-cells (qRT-PCR)
Assay type: cell-based
Conditions: recombinant Galectin-9 2.5 μg/mL added to the culture, 72 hours
Description: HAVCR2 mRNA expression in activated CD8+ T-cells cultured with T-ALL supernatant (from DND-41 cells; orange) or control media (blue), in the presence/absence of anti-human Galectin-9 (10 μg/mL) or recombinant Galectin-9 (2.5 μg/mL). n.s. P>0.05, **P≤0.01 and ***P≤0.001, based on 3 technical replicates, using two-sided t-test.
T-cells were isolated using Easy Sep Human T-cell Enrichment kit (StemCell Technologies), activated and expanded with Dynabeads Human T-activator CD3/CD28 (ThermoFisher Scientific) in X-VIVO 15 (Lonza) with 5% of human AB serum, and 50 U/mL IL-2 (Miltenyi Biotech). For T-cell exhaustion functional assays, activated CD8′ T-cells were cultured in X-VIVO 15 media or in supernatant media of DND-41 cell line, with 50 U/mL IL-2. For HAVCR2-LSGAL9 pathway blocking experiments, activated CD8^+ T-cells were cultured in X-VIVO 15 media or in supernatant media of DND-41 T-ALL supplemented with anti-human Galectin-9 10 μg/mL (Thermo Fisher Scientific) or recombinant Galectin-9 2.5 μg/mL (R&D systems) for 72 hours.
RNA was isolated using RNeasy Mini Kit (Qiagen), followed by reverse transcription with SuperScript III Reverse Transcriptase (ThermoFisher Scientific). Gene expression was quantified by quantitative real-time PCR using Power SYBR Green PCR Master Mix (Applied Biosystems, Vial instrument). […]

T1 sequence (O00182 whole entry): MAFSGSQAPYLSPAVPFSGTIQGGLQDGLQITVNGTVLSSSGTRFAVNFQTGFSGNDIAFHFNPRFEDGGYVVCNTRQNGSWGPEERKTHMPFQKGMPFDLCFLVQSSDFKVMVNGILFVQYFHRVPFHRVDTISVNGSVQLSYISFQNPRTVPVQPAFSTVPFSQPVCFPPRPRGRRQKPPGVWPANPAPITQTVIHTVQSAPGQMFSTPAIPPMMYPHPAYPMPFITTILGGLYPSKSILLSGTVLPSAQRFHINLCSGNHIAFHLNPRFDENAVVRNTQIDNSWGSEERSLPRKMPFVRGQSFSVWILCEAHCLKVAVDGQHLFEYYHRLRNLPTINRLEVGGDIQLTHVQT

Exhaustion marker expression in activated CD8+ T-cells: upregulation of exhaustion markers
B1: recombinant soluble LGALS9: recombinant Galectin-9 (R&D systems), used at 2.5 μg/mL (protein)
chain: MAFSGSQAPYLSPAVPFSGTIQGGLQDGLQITVNGTVLSSSGTRFAVNFQTGFSGNDIAFHFNPRFEDGGYVVCNTRQNGSWGPEERKTHMPFQKGMPFDLCFLVQSSDFKVMVNGILFVQYFHRVPFHRVDTISVNGSVQLSYISFQNPRTVPVQPAFSTVPFSQPVCFPPRPRGRRQKTQTVIHTVQSAPGQMFSTPAIPPMMYPHPAYPMPFITTILGGLYPSKSILLSGTVLPSAQRFHINLCSGNHIAFHLNPRFDENAVVRNTQIDNSWGSEERSLPRKMPFVRGQSFSVWILCEAHCLKVAVDGQHLFEYYHRLRNLPTINRLEVGGDIQLTHVQT
